pKd: −log10 of the molar value.
Tests used:
[1] = biological target: SbcC;SbcD H84Q H84Q (Escherichia coli;Escherichia coli) (UniProt P13458+P0AG76); assay: fluorescence anisotropy; details: 5 mM Mg2+, 1 mM Mn2+; 25 mM Tris pH 7.5, 50 mM KCl, 5 mM MgCl2, 1 mM MnCl2, 1 mM DTT, 1 mM ATP where stated; 5 nM DNA, 2-1000 nM SbcCD, 20 min at 25 C
[2] = tested on: T1, Nc1ncnc2c1ncn2[C@@H]1O[C@H](COP(=O)(O)OP(=O)(O)OP(=O)(O)O)[C@@H](O)[C@H]1O; assay: NADH-coupled (PK/LDH) ATPase assay, Michaelis-Menten fit; type: biochemical, Escherichia coli; details: dsDNA present, 5 mM MgCl2, 1 mM MnCl2, 50 mM KCl, 25 mM Tris pH 7.5, 37°C
T1 construct: full-length SbcC (pET28) and SbcD with C-terminal His6 (pET21b), co-expressed in E. coli BL21(DE3); SbcC2-SbcD2 heterotetramer; printed 4M0V is the SbcD dimer structure only; with Nuclease SbcCD subunit D

| Substance | pKd [1] | Km [2] [µM] |
| --- | --- | --- |
| 60 bp DNA, AT-rich positions 15-29 | 7.35 | – |
| 60 bp DNA, GC-rich positions 15-29 | 6.88 | – |
| SbcCD (Escherichia coli K-12) | – | 46 ± 6 |

Reference: publication PMC6265447, “The bacterial Mre11–Rad50 homolog SbcCD cleaves opposing strands of DNA by two chemically distinct nuclease reactions” (Nucleic Acids Research, 2018)
